Reference: the supplement of paper PMC9112550, “Optimization of the antimicrobial peptide Bac7 by deep mutational scanning” (BMC Biology, 2022)
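Also: peptides expressed intracellularly from a pBAD plasmid library in pooled LB shake-flask culture, induced with 0.3% L-arabinose, DNA abundance read by NGS, three biological replicates, DESeq2 with apeglm shrinkage.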

What follows are sequences tested on Escherichia coli TOP10 (assay: shrunken log2 fold change of peptide-encoding DNA abundance (4.5 h post-induction vs induction); higher = less antimicrobial activity (less host growth inhibition)). Details: time post-induction: 4.5 h; library: site-saturation at positions 5, 18, 19, 20.
RRIRYRPPRLPRPRPRPVRFPRP was tested, and the “shrunken log2 fold change” value was -0.0685.
For RRIRARPPRLPRPRPRPHGYPRP, the “shrunken log2 fold change” value was 0.0466.
With RRIRLRPPRLPRPRPRPIGAPRP the “shrunken log2 fold change” value was -0.0568.
With RRIRIRPPRLPRPRPRPSRWPRP the “shrunken log2 fold change” value was 0.324.
In the case of RRIRLRPPRLPRPRPRPQGRPRP, the “shrunken log2 fold change” value is reported as -0.136.
RRIRERPPRLPRPRPRPICRPRP was tested, and the “shrunken log2 fold change” value was 0.0559.
RRIRARPPRLPRPRPRPGSCPRP was tested, and the “shrunken log2 fold change” value was 0.32.
In the case of RRIRQRPPRLPRPRPRPNSGPRP, the “shrunken log2 fold change” value is reported as -0.0316.
With RRIRGRPPRLPRPRPRPWNTPRP the “shrunken log2 fold change” value was 0.111.
With RRIRQRPPRLPRPRPRPDMIPRP the “shrunken log2 fold change” value was -0.303.
For RRIRYRPPRLPRPRPRPYSGPRP, the “shrunken log2 fold change” value was -1.
In the case of RRIRCRPPRLPRPRPRPIMNPRP, the “shrunken log2 fold change” value is reported as -0.911.
For RRIRHRPPRLPRPRPRPDRIPRP, the “shrunken log2 fold change” value was -0.495.
In the case of RRIRVRPPRLPRPRPRPKSVPRP, the “shrunken log2 fold change” value is reported as -0.00455.
For RRIRIRPPRLPRPRPRPSQLPRP, the “shrunken log2 fold change” value was -0.385.
For RRIRFRPPRLPRPRPRPKVKPRP, the “shrunken log2 fold change” value was 0.0668.
For RRIRGRPPRLPRPRPRPASWPRP, the “shrunken log2 fold change” value was 2.63.
RRIRDRPPRLPRPRPRPTGWPRP was tested, and the “shrunken log2 fold change” value was 1.21.
For RRIRQRPPRLPRPRPRPELLPRP, the “shrunken log2 fold change” value was 0.534.
For RRIRDRPPRLPRPRPRPMKFPRP, the “shrunken log2 fold change” value was -0.00192.
For RRIRTRPPRLPRPRPRPNLLPRP, the “shrunken log2 fold change” value was -0.245.
For RRIRYRPPRLPRPRPRPRTQPRP, the “shrunken log2 fold change” value was 0.0444.
RRIRFRPPRLPRPRPRPAVPPRP was tested, and the “shrunken log2 fold change” value was 0.0613.
For RRIRSRPPRLPRPRPRPVPRPRP, the “shrunken log2 fold change” value was 0.427.
For RRIRKRPPRLPRPRPRPAVCPRP, the “shrunken log2 fold change” value was 0.356.
With RRIRPRPPRLPRPRPRPTRQPRP the “shrunken log2 fold change” value was 0.221.
With RRIRDRPPRLPRPRPRPTISPRP the “shrunken log2 fold change” value was -0.0421.
In the case of RRIRARPPRLPRPRPRPWCWPRP, the “shrunken log2 fold change” value is reported as 0.583.
For RRIRSRPPRLPRPRPRPDIPPRP, the “shrunken log2 fold change” value was -0.178.
RRIRFRPPRLPRPRPRPRLAPRP was tested, and the “shrunken log2 fold change” value was 0.69.
RRIRLRPPRLPRPRPRPILQPRP was tested, and the “shrunken log2 fold change” value was -0.129.
For RRIRPRPPRLPRPRPRPLTEPRP, the “shrunken log2 fold change” value was 0.0389.
RRIRMRPPRLPRPRPRPYNCPRP was tested, and the “shrunken log2 fold change” value was -0.0909.
In the case of RRIRQRPPRLPRPRPRPCLAPRP, the “shrunken log2 fold change” value is reported as 0.297.
For RRIRERPPRLPRPRPRPTQMPRP, the “shrunken log2 fold change” value was -0.155.
For RRIRWRPPRLPRPRPRPNSYPRP, the “shrunken log2 fold change” value was -0.197.
RRIRPRPPRLPRPRPRPVAYPRP was tested, and the “shrunken log2 fold change” value was -0.173.
RRIRTRPPRLPRPRPRPTGRPRP was tested, and the “shrunken log2 fold change” value was 0.099.
In the case of RRIRPRPPRLPRPRPRPTWVPRP, the “shrunken log2 fold change” value is reported as 0.0694.
For RRIRVRPPRLPRPRPRPDRKPRP, the “shrunken log2 fold change” value was 0.0279.
In the case of RRIRFRPPRLPRPRPRPNPIPRP, the “shrunken log2 fold change” value is reported as -0.423.
For RRIRRRPPRLPRPRPRPERLPRP, the “shrunken log2 fold change” value was 0.474.
For RRIRKRPPRLPRPRPRPIWFPRP, the “shrunken log2 fold change” value was -0.0276.
In the case of RRIRDRPPRLPRPRPRPENDPRP, the “shrunken log2 fold change” value is reported as 0.41.
With RRIRQRPPRLPRPRPRPRNNPRP the “shrunken log2 fold change” value was -0.173.
In the case of RRIRARPPRLPRPRPRPQLDPRP, the “shrunken log2 fold change” value is reported as 0.654.
With RRIRARPPRLPRPRPRPWILPRP the “shrunken log2 fold change” value was 0.223.
For RRIRSRPPRLPRPRPRPLKSPRP, the “shrunken log2 fold change” value was 0.0254.
With RRIRWRPPRLPRPRPRPWGIPRP the “shrunken log2 fold change” value was 0.0114.
RRIRIRPPRLPRPRPRPYKNPRP was tested, and the “shrunken log2 fold change” value was -0.814.
For RRIRLRPPRLPRPRPRPQRWPRP, the “shrunken log2 fold change” value was 0.236.
RRIRIRPPRLPRPRPRPPNWPRP was tested, and the “shrunken log2 fold change” value was 0.0636.
With RRIRWRPPRLPRPRPRPDRVPRP the “shrunken log2 fold change” value was 0.0957.
RRIRYRPPRLPRPRPRPKDVPRP was tested, and the “shrunken log2 fold change” value was -0.0107.
For RRIRCRPPRLPRPRPRPYNFPRP, the “shrunken log2 fold change” value was -0.497.
With RRIRRRPPRLPRPRPRPEISPRP the “shrunken log2 fold change” value was 0.17.
With RRIRPRPPRLPRPRPRPKVHPRP the “shrunken log2 fold change” value was -0.132.
For RRIRFRPPRLPRPRPRPTTHPRP, the “shrunken log2 fold change” value was -0.0585.
With RRIRTRPPRLPRPRPRPHLGPRP the “shrunken log2 fold change” value was 0.0458.
In the case of RRIRNRPPRLPRPRPRPAYIPRP, the “shrunken log2 fold change” value is reported as -0.786.
For RRIRARPPRLPRPRPRPWLVPRP, the “shrunken log2 fold change” value was 0.0219.
With RRIRDRPPRLPRPRPRPWQIPRP the “shrunken log2 fold change” value was 0.0319.
In the case of RRIRSRPPRLPRPRPRPPAYPRP, the “shrunken log2 fold change” value is reported as -0.0776.
With RRIRLRPPRLPRPRPRPQTGPRP the “shrunken log2 fold change” value was -0.247.
In the case of RRIRVRPPRLPRPRPRPIADPRP, the “shrunken log2 fold change” value is reported as 0.0367.
In the case of RRIRPRPPRLPRPRPRPPFWPRP, the “shrunken log2 fold change” value is reported as 0.767.
With RRIRHRPPRLPRPRPRPCCPPRP the “shrunken log2 fold change” value was -0.243.
In the case of RRIRIRPPRLPRPRPRPRSQPRP, the “shrunken log2 fold change” value is reported as 0.085.
RRIRCRPPRLPRPRPRPFTKPRP was tested, and the “shrunken log2 fold change” value was -0.628.
In the case of RRIRLRPPRLPRPRPRPNLCPRP, the “shrunken log2 fold change” value is reported as 0.119.
For RRIRWRPPRLPRPRPRPCQPPRP, the “shrunken log2 fold change” value was -0.118.
RRIRLRPPRLPRPRPRPCIPPRP was tested, and the “shrunken log2 fold change” value was -0.194.
RRIRARPPRLPRPRPRPMELPRP was tested, and the “shrunken log2 fold change” value was 0.114.
In the case of RRIRNRPPRLPRPRPRPSMRPRP, the “shrunken log2 fold change” value is reported as 0.000173.
With RRIRLRPPRLPRPRPRPVNFPRP the “shrunken log2 fold change” value was -0.13.
